The values below are quoted from earlier work in publication PMC3499705.

Like-named read-outs stand apart in the source and are kept apart here.

The target in data set [1] is VPAC1 receptor N-terminal ectodomain (Homo sapiens) (UniProt P32241). The data set is described as follows: intrinsic tryptophan fluorescence.
For data set [2] the target is unchanged.
The target of the next data set is VIP (Homo sapiens) (UniProt P01282).
The next data set concerns the target GRF (Homo sapiens) (UniProt P01286). Kind of data set: intrinsic tryptophan fluorescence.
For data set [3], the target named is Helodermin (Heloderma suspectum) (UniProt P04204). Kind of data set: intrinsic tryptophan fluorescence.
For data set [4], the target named is PACAP27 PACAP27 (Homo sapiens) (UniProt P18509). Kind of data set: intrinsic tryptophan fluorescence.
Another data set addresses PHM PHM (Homo sapiens) (UniProt P01282). The data set is described as follows: intrinsic tryptophan fluorescence.
The target of the next data set is Secretin (Homo sapiens) (UniProt P09683). Kind of data set: intrinsic tryptophan fluorescence.
The target of data set [5] is VIP2-28 2-28 (Homo sapiens) (UniProt P01282). Kind of data set: intrinsic tryptophan fluorescence.
Data set [6] has as its target VIP6-28 6-28 (Homo sapiens) (UniProt P01282). The data set is described as follows: intrinsic tryptophan fluorescence.

For the substance PACAP27 PACAP27 (from UniProt P18509), the Kd in data set [1] is 570 nM.
Turning to VIP (from UniProt P01282), the equilibrium dissociation constant (Kd) in [2] was 540 nM.
With PHM PHM (from UniProt P01282), the Kd in data set [1] was 8000 nM.
Take GRF (from UniProt P01286): the Kd in data set [1] was 10100 nM.
Consider VIP2-28 2-28 (from UniProt P01282), for which the Kd in data set [1] is 850 nM.
Regarding “VPAC1 receptor 31-144 (from UniProt P32241)”, the Kd was 540 nM with VIP (Homo sapiens); 10100 nM with GRF (Homo sapiens); 2540 nM in [3]; 570 nM in data set [4]; 8000 nM with PHM PHM (Homo sapiens); 16000 nM with Secretin (Homo sapiens). In addition, the Kd in [5] and in data set [6] was 850 nM in each case.
For the substance helodermin (from UniProt P04204), the dissociation constant (Kd) in data set [1] was 2540 nM.
In the case of secretin (from UniProt P09683), in data set [1], the dissociation constant Kd is 16000 nM.

The Kd is the constant that tells how readily two partners part at equilibrium.
